According to patent US20230053258A1 (RAMOT AT TEL AVIV UNIVERSITY, published 2023):

B1: B1 Inclonal IgG (human IgG1) (antibody, V domains shown)
VH: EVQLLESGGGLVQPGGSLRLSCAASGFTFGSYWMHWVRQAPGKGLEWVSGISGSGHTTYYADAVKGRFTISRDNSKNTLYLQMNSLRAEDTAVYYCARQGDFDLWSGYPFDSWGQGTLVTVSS
VL: DIVLTQSPGTLSLSPGERATLSCRASQSVSSHLAWYQQKPGQAPRLLIYDASNRATGIPDRFSGSGSGTDFTLTISRLEPEDFAVYYCQQYDSYPYTFGQGTKLDIK
notes: also called B1 IgG
B2: A9 Inclonal IgG (human IgG1) (antibody, V domains shown)
VH: EVQLLESGGGLVQPGGSLRLSCAASGFTFRSYGMHWVRQAPGRGLEWVSAINSNGDSTYYPDTVKDRFTISRDNSKNTLYLQMNSLRAEDTAVYYCARADYYDSTGYYYHGLDLWGQGTLVTVSS
VL: DIVLTQPPSASGTPGQRVTISCSGSRDNIGKNYVSWYQQLPGTAPKLLIYRNNQRPSGVPDRFSGSKSGTSASLAISGLRSEDEADYYCSSYAGSSVIFGGGTKVTVL
notes: also called A9 IgG; IgG A9

Biological target: T1, recombinant human wild type insulin degrading enzyme (WT rhIDE) (human, UniProt P14735 42-1019)
T1 construct: also called WT IDE; active IDE
Experiment: ELISA on coated WT rhIDE

| Binder | EC50 [nM] |
| --- | --- |
| B1 | ~1 |
| B2 | ~1 |
